Assay results taken from patent US20120294796A1 (MacroGenics, published 2012).

B1: BRCA69D (antibody, IgG1, V domains shown)
VH: QVQLQQSGAELARPGASVKLSCKASGYTFTSYWMQWVKQRPGQGLEWIGTIYPGDGDTRYTQKFKGKATLTADKSSSTAYMQLSSLASEDSAVYYCARRGIPRLWYFDVWGAGTTVTVSS
VL: DIQMTQTTSSLSASLGDRVTISCRASQDISNYLNWYQQKPDGTVKLLIYYTSRLHSGVPSRFSGSGSGTDYSLTIDNLEQEDIATYFCQQGNTLPPTFGGGTKLEIK
notes: also called BRCA69A (probable misprint)
B2: BRCA84D (antibody, IgG1, V domains shown)
VH: DVQLVESGGGLVQPGGSRKLSCAASGFTFSSFGMHWVRQAPEKGLEWVAYISSDSSAIYYADTVKGRFTISRDNPKNTLFLQMTSLRSEDTAMYYCGRGRENIYYGSRLDYWGQGTTLTVSS
VL: DIAMTQSQKFMSTSVGDRVSVTCKASQNVDTNVAWYQQKPGQSPKALIYSASYRYSGVPDRFTGSGSGTDFTLTINNVQSEDLAEYFCQQYNNYPFTFGSGTKLEIK
B3: PRCA157 (antibody, IgG1, V domains shown)
VH: EVQQVESGGDLVKPGGSLKLSCAASGFTFSSYGMSWVRQTPDKRLEWVATINSGGSNTYYPDSLKGRFTISRDNAKNTLYLQMRSLKSEDTAMYYCARHDGGAMDYWGQGTSVTVSS
VL: DIQMTQSPASLSVSVGETVTITCRASESIYSYLAWYQQKQGKSPQLLVYNTKTLPEGVPSRFSGSGSGTQFSLKINSLQPEDFGRYYCQHHYGTPPWTFGGGTNLEIK

Each binder was assayed against T1, human B7-H3 on the surface of human cell lines (human, UniProt Q5ZPR3 29-534) (assay: FACS, fluorescein-labeled mAb, A549 cells).
T1 construct: whole, on cells; also called B7-H3 present on the surface of cancer cells
T1 sequence (looked up): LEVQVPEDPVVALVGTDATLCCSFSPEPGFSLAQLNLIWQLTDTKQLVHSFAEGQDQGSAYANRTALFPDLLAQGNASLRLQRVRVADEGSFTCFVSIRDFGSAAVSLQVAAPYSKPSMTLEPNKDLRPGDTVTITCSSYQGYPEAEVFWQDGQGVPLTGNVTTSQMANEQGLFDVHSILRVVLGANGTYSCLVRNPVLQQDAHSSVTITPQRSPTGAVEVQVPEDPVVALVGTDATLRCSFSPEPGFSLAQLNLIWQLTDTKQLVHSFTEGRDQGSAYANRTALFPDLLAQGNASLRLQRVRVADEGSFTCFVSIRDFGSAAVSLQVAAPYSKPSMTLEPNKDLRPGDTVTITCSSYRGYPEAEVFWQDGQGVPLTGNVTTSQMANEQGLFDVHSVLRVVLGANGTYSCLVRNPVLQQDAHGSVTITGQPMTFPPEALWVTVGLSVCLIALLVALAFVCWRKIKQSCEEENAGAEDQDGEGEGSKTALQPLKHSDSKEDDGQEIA
B1 was tested, and the “FACS MFI” value was 60.5 MFI.
For B2, the “FACS MFI” value was 25 MFI.
With B3 the “FACS MFI” value was 44.3 MFI.

The binders below were run against T1, human B7-H3 on the surface of human … (assay: FACS, fluorescein-labeled mAb, A498 cells).
B1 was tested, and the “FACS MFI” value was 84.1 MFI.
In the case of B2, the “FACS MFI” value is reported as 30.6 MFI.
For B3, the “FACS MFI” value was 58.8 MFI.

What follows are binders tested against T1, human B7-H3 on the surface of human … (assay: FACS, fluorescein-labeled mAb, LNCaP cells).
With B1 the “FACS MFI” value was 92.4 MFI.
In the case of B2, the “FACS MFI” value is reported as 16.4 MFI.
For B3, the “FACS MFI” value was 16.4 MFI.
